Assay results reported in US20240270846A1 (published 2024).

Molecular target: T1, CD3 epsilon homodimer protein (UniProt P07766 23-126)
T1 construct: also called CD3 (CD3 epsilon)
Assay: SPR, Biacore T200, CD3 epsilon homodimer immobilized on CM4, one-arm antibody as analyte, 25 degrees C
Procedure: An appropriate amount of CD3 epsilon homodimer protein was immobilized onto Sensor chip CM4 (GE Healthcare Japan Corp.) by the amine coupling method. Then, the antibody having an appropriate concentration was injected thereto as an analyte and allowed to interact with the CD3 epsilon homodimer protein on the sensor chip. Then, the sensor chip was regenerated by the injection of 10 mmol/L glycine-HCl (pH 1.5). The assay was conducted at 25 degrees C., and HBS-EP+(GE Healthcare Japan Corp.) was used as a running buffer. […] Each parameter was calculated using Biacore T200 Evaluation Software (GE Healthcare Japan Corp.).
Specifically, when the amount of the GLS3000-containing antibody bound was defined as X and the amount of the L chain one-amino acid altered form bound was defined as Y, a value of Z (ratio of amounts bound)=Y/X was used.

T1 sequence (P07766 23-126): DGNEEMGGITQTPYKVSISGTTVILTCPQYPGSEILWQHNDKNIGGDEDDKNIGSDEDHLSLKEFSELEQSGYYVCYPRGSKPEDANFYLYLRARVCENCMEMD

B1: L chain one-amino acid altered form of GLS3000, Q to Y at Kabat position 93 (one-arm antibody: CE115HA000-pE22Hh / Kn010G3 / altered GLS3000-kappa) (antibody, human IgG1, kappa, L234A L235A, N297A, name in Kabat numbering)
heavy: QVQLVESGGGVVQPGRSLRLSCAASGFTFSNAWMHWVRQAPGKGLEWVAQIKAKSNNYATYYAESVKGRFTISRDDSKNSLYLQMNSLKTEDTAVYYCRYVHYGAYYGVDAWGQGTTVTVSSASTKGPSVFPLAPSSKSTSGGTAALGCLVKDYFPEPVTVSWNSGALTSGVHTFPAVLQSSGLYSLSSVVTVPSSSLGTQTYICNVNHKPSNTKVDKKVEPKSCDKTHTCPPCPAPEAAGGPSVFLFPPKPKDTLMISRTPEVTCVVVDVSHEDPEVKFNWYVDGVEVHNAKTKPREEQYASTYRVVSVLTVLHQDWLNGKEYKCKVSNKALPAPIEKTISKAKGQPREPQVYTLPPSRCELTKNQVSLSCAVKGFYPSDIAVEWESNGQPENNYKTTPPVLDSDGSFFLVSKLTVDKSRWQQGNVFSCSVMHEALHNHYTQKSLSLSPDYKDDDDK
chain: EPKSSDKTHTCPPCPAPELLGGPSVFLFPPKPKDTLMISRTPEVTCVVVDVSHEDPEVKFNWYVDGVEVHNAKTKPREEQYNSTYRVVSVLTVLHQDWLNGKEYKCKVSNKALPAPIEKTISKAKGQPREPQVCTLPPSRDELTKNQVSLWCLVKGFYPSDIAVEWESNGQPENNYKTTPPVLDSDGSFFLYSKLTVDKSRWQQGNVFSCSVMHEALHNRYTQKSLSLSP
light: DIVMTQSPLSLPVTPGEPASISCRSSQSLVHSNRNTYLHWYQQKPGQAPRLLIYKVSNRFSGVPDRFSGSGSGTDFTLKISRVEAEDVGVYYCGQGTYVPYTFGQGTKLEIKRTVAAPSVFIFPPSDEQLKSGTASVVCLLNNFYPREAKVQWKVDNALQSGNSQESVTEQDSKDSTYSLSSTLTLSKADYEKHKVYACEVTHQGLSSPVTKSFNRGEC
notes: One-arm antibody (IgG lacking one Fab); also called GLS3000 Q93Y
- ratio of amounts bound (Z = Y/X) against the unaltered GLS3000 antibody: 0.87

B2: L chain one-amino acid altered form of GLS3000, T to Y at Kabat position 92 (one-arm antibody: CE115HA000-pE22Hh / Kn010G3 / altered GLS3000-kappa) (antibody, human IgG1, kappa, L234A L235A, N297A, name in Kabat numbering)
heavy: QVQLVESGGGVVQPGRSLRLSCAASGFTFSNAWMHWVRQAPGKGLEWVAQIKAKSNNYATYYAESVKGRFTISRDDSKNSLYLQMNSLKTEDTAVYYCRYVHYGAYYGVDAWGQGTTVTVSSASTKGPSVFPLAPSSKSTSGGTAALGCLVKDYFPEPVTVSWNSGALTSGVHTFPAVLQSSGLYSLSSVVTVPSSSLGTQTYICNVNHKPSNTKVDKKVEPKSCDKTHTCPPCPAPEAAGGPSVFLFPPKPKDTLMISRTPEVTCVVVDVSHEDPEVKFNWYVDGVEVHNAKTKPREEQYASTYRVVSVLTVLHQDWLNGKEYKCKVSNKALPAPIEKTISKAKGQPREPQVYTLPPSRCELTKNQVSLSCAVKGFYPSDIAVEWESNGQPENNYKTTPPVLDSDGSFFLVSKLTVDKSRWQQGNVFSCSVMHEALHNHYTQKSLSLSPDYKDDDDK
chain: EPKSSDKTHTCPPCPAPELLGGPSVFLFPPKPKDTLMISRTPEVTCVVVDVSHEDPEVKFNWYVDGVEVHNAKTKPREEQYNSTYRVVSVLTVLHQDWLNGKEYKCKVSNKALPAPIEKTISKAKGQPREPQVCTLPPSRDELTKNQVSLWCLVKGFYPSDIAVEWESNGQPENNYKTTPPVLDSDGSFFLYSKLTVDKSRWQQGNVFSCSVMHEALHNRYTQKSLSLSP
light: DIVMTQSPLSLPVTPGEPASISCRSSQSLVHSNRNTYLHWYQQKPGQAPRLLIYKVSNRFSGVPDRFSGSGSGTDFTLKISRVEAEDVGVYYCGQGYQVPYTFGQGTKLEIKRTVAAPSVFIFPPSDEQLKSGTASVVCLLNNFYPREAKVQWKVDNALQSGNSQESVTEQDSKDSTYSLSSTLTLSKADYEKHKVYACEVTHQGLSSPVTKSFNRGEC
notes: One-arm antibody (IgG lacking one Fab); also called GLS3000 T92Y
- ratio of amounts bound (Z = Y/X) against the unaltered GLS3000 antibody: 0.33
